Experimental data: patent US20020037506, “Aptamer based two-site binding assay” (published 2002)

Experiments:
alpha-thrombin [1] = molecular target: T1, alpha-thrombin (Homo sapiens, UniProt P00734;P00734 P00734:328-363,P00734:364-622); test: flow; reporter with DT-beads (FIG. 2 legend cites SEQ 12 but Table 1 gives SEQ 7); 50 mM Tris pH 7.5, 100 mM NaCl, 2 mM MgCl2, 37 C
alpha-thrombin [2] = molecular target: T1, alpha-thrombin; test: flow; reporter with MC-beads, 30 nM thrombin, 37 C; values in figure only
alpha-thrombin [3] = molecular target: T1, alpha-thrombin; test: detector in two-step sandwich on nylon membrane with immobilized DT-aptamer, room temperature, 100 uM heparin

Binder: TTTTTTGTAGTCACTGGTTGGTGAGGTTGGGTGACTAC (ssDNA) [MC-5'-LNK-F]
- binding result (alpha-thrombin [1]): binds

Binder: TTTTTGCTTAGTCCGTGGTAGGGCAGGTTGGGGTGACTAAGC (ssDNA) [DT-5'-LNK-F]
- binding result (alpha-thrombin [2]): binds

B1: MC-DIMR-F (ssDNA)
DNA: GTAGTCACTGGTTGGTGAGGTTGGGTGACTACTTTTTTCATCAGTGGGTTGGAGTGGTTGGTCACTGATG
modifications: dimer; second half is the MC sequence in reverse order, structure drawn as image only
- binding result (alpha-thrombin [3]): binds
